The source of these data is patent US7235629B2, “Functional fragment of the leptin receptor” (Vlaams Interuniversitair Instituut voor Biotechnologie VZW, priority 2000, dated 2007).

One assay deals with T1, FLAG-tagged SOCS3 (Rattus norvegicus, UniProt O88583).
T1 construct: expressed in transfected cells; host or cells: HEK293T cells (transient transfection; cleared lysate used)
T1 sequence (O88583 1-225): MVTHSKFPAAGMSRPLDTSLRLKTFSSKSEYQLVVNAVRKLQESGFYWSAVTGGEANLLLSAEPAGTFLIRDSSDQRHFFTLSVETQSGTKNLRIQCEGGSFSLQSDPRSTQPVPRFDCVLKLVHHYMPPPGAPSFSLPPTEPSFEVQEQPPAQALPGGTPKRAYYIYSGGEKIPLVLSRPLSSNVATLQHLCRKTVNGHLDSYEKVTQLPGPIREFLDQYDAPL
Kind of assay: Phosphopeptide affinity chromatography with anti-FLAG Western blot: SOCS3 binding to biotinylated leptin receptor peptides. The conditions noted are these: lysates of about 3×10^7 HEK293T cells transfected with pMET7-fSOCS3; 5 nmoles biotinylated peptide on streptavidin-agarose; two hours at 4° C. The source says:
Monoclonal anti-FLAG antibody M2 was obtained from Sigma. Mouse recombinant leptin was purchased from R&D Systems. Peptides were synthesized using standard Fmoc-amino-acid solid phase chemistry on an Applied Biosystems Model 431A peptide synthesizer. Biotin was manually esterified following similar procedures as on the synthesizer and added to the reaction mixture. Incorporation of phosphotyrosine was realized by using a protected Fmoc-tyrosine-phosphobenzylester (Novabiochem). After purification, the mass of the peptides was confirmed by mass spectrometry. Sequences of the peptides were biotin-QRQPSVK(p)Y985ATLVSNDK (SEQ ID NO:7) and biotin-NHREKSVC(p)Y1077 LGVTSVNR (SEQ ID NO:8).
Approximately 10^6 HEK293T cells were lysed in 150 μl 2× loading buffer. After sonication, 30 μl was loaded on a 10% polyacrylamide gel. […] Blotting efficiency was checked using PonceauS staining (Sigma).
For phosphopeptide affinity chromatography, approximately 3×10^7 HEK293T cells transiently transfected as indicated were lysed in lysis buffer (20 mM Hepes pH 7; 1 mM MgCl2; 10 mM KCl; 0.5 mM DTT; 150 mM NaCl; 0.5% NP40; 1 mM NaVO4; 5 mM NaF; 20% glycerol; Complete™ Protease Inhibitor Cocktail (Roche)). Precipitated material was cleared by 5 minutes centrifugation at 10,000 g. To eliminate a-specific interactions, supernatants were brought on a pre-column containing Sepharose 4B beads prior to phosphopeptide affinity chromatography on streptavidin-coupled agarose beads (Sigma). Peptide concentrations were determined by a colorimetric assay using alkaline hydrolysis and a ninhydrine reagent. Fifty μl of streptavidin-agarose slurry was incubated with 5 nmoles of peptide for each reaction. Cleared lysate was incubated for two hours at 4° C. under slow stirring. […]
The interaction sites of SOCS3 with the leptin receptor were confirmed using a biochemical approach. FLAG-tagged SOCS3 was expressed upon transient transfection of pMET7-fSOCS3 in HEK293T cells and was analyzed for binding to (phospho)-tyrosine-containing peptides matching the two motifs within the leptin receptor. […]

Assay [1] concerns leptin receptor. The assay can be described thus: Leptin-induced pGL3-rPAP1-luci reporter induction in PC12 LR8 cells transiently expressing SOCS3. To be noted: leptin 24 hours. The assay is classed as cell-based, mouse. On the procedure: FIG. 1: Expression of SOCS3 leads to inhibition of leptin-induced rPAP1 expression in PC12 cells. PC12 LR8 cells were co-transfected with a plasmid encoding SOCS3 (pMET7fSOCS3) or empty vector (mock, pMET7), and a pGL3-rPAP11 reporter construct. Forty-eight hours after transfection, the cells were stimulated with leptin or left untreated. Luciferase activity was measured in triplicate after 24 hours. CPS: absolute luminescence counts per second; NS: nonstimulated negative control.
Culture conditions and transient transfection procedures for PC12 and generation of the PC12LR8 cell line were as previously described. (Eyckerman et al., 1999; Waelput et al., 2000.)
(§1) Luciferase assays, binding assays using Leptin-SEAP and Northern blot hybridizations with SOCS3 and actin probes were described previously by Eyckerman et al. (1999). β-galactosidase activity was measured using the Galacto-Star™ chemiluminescent detection kit (Tropix) and a Topcount Chemiluminescence Counter (Packard).
Through representational difference analysis, a PCR-based differential expression screening in PC12 cells expressing the mouse leptin receptor, several leptin-induced transcripts (including SOCS3) were identified. In order to check the inhibitory role of SOCS3 on leptin signaling in the cell systems used, an expression vector containing rat SOCS3 was generated. […]

The target of assay [2] is murine leptin receptor, long isoform, Y1077F (mouse), P48356. Kind of assay: cell-based or functional assay.
Assay [3] concerns the target murine leptin receptor, long isoform, Y985F (mouse), P48356. Kind of assay: cell-based or functional assay.
Assay [4] addresses murine leptin receptor, long isoform, wild type (mouse), P48356. Kind of assay: cell-based or functional assay.
Assay [5] has as its system leptin receptor. The assay can be described thus: rPAP1-luciferase reporter assay of leptin signalling in HEK293T cells co-transfected with leptin receptor variants and SOCS3. Format: cell-based, murine. To be noted: 24 hours leptin. The method, then: HEK293T cells were maintained in a 10% CO2 humidified atmosphere at 37° C. and grown using DMEM with 4500 mg/l glucose, 10% fetal bovine serum and 50 μg/ml gentamycin (all from LifeTechnologies). Typically, 4×10^5 cells were seeded the day before transfection in a 6-well plate and transfected overnight with approximately 2 μg plasmid DNA using a standard calcium phosphate precipitation procedure. One day after transfection, cells were re-suspended with Cell Dissociation Agent (LifeTechnologies), seeded in a black well plate (Costar) and stimulated overnight with […] leptin or left unstimulated.
as §1
Based on its functional similarity with the gp130 chain, the leptin receptor was tested for interaction with SOCS3. Leptin receptor variants containing Y to F mutations at positions Y985, Y1077, or at both sites, were tested in a functional assay based on rPAP1-induction. Signalling via the leptin receptor variants was analyzed upon transient transfection in HEK293T cells with the pXP2d2-rPAP11uci and the FLAG-tagged pMET7-fSOCS3 expression construct. Luciferase activity data were normalized by co-transfection with pUT651 and a β-galactosidase activity assay.
Expression of leptin receptor variants and SOCS3 were confirmed, respectively, by a binding assay using a leptin-SEAP fusion protein and Western blot analysis using an anti-FLAG antibody (FIG. 3). LR expression levels were measured on transfected cells by incubation for 90 minutes with Leptin-SEAP fusion protein with or without excess leptin (100×). The transfected cells were stimulated for 24 hours with leptin or left untreated. Luciferase measurements were performed in triplicate and were normalized by co-transfection with the pUT651 β-galactosidase construct and a β-galactosidase activity assay. The results indicated a strong inhibitory activity of SOCS3 (80-90% inhibition) when the wild-type or the mutant Y1077F leptin receptor was expressed, and a moderate inhibition (30-50% inhibition) upon expression of a Y985F receptor variant.
A general note: In a reporter assay the amount or activity of a reporter protein is the signal.

murine leptin receptor, long isoform, Y985F (mouse), P48356, sequence (P48356 22-1162 Y985F): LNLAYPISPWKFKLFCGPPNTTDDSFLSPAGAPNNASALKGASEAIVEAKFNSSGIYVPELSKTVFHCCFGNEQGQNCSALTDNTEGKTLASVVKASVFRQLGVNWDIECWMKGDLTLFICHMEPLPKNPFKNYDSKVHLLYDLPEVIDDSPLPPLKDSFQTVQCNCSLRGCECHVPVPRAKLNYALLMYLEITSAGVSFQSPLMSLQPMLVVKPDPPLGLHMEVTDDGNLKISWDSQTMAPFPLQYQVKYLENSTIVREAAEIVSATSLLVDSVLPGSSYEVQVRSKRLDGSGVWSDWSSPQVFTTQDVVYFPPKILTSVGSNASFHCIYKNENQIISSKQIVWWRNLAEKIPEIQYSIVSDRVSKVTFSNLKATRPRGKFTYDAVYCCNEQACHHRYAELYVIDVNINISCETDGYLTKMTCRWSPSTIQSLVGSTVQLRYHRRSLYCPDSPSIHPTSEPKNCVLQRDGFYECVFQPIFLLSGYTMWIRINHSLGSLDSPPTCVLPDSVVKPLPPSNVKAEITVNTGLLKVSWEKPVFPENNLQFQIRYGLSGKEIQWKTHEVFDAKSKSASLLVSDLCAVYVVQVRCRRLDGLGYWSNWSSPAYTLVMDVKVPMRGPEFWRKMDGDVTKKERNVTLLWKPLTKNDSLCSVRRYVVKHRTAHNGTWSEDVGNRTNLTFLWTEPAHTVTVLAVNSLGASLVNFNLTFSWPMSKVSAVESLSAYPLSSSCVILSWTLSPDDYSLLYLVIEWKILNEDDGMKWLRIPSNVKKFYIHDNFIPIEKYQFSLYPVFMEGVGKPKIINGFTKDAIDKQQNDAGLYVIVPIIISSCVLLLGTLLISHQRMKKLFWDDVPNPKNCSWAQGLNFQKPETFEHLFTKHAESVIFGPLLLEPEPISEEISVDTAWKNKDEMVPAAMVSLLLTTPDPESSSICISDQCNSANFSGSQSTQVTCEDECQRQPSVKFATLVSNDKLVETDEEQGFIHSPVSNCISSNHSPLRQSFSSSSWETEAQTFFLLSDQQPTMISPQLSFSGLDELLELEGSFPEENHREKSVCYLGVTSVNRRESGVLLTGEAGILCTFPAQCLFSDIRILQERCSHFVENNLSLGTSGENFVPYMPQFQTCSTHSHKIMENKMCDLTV
murine leptin receptor, long isoform, wild type (mouse), P48356, sequence (P48356 22-1162): as the sequence (P48356 22-1162 Y985F) above, with F964Y counted along it
murine leptin receptor, long isoform, Y1077F (mouse), P48356, sequence (P48356 22-1162 Y1077F): as the sequence (P48356 22-1162 Y985F) above, with F964Y, Y1056F counted along it

As for “biotin-NHREKSVC(p)Y1077 LGVTSVNR (SEQ ID NO:8) [phosphorylated Y1077 peptide]”, the “binding of SOCS3 to peptide (Western blot, anti-FLAG antibody)” value (shortened to “binding of SOCS3 to peptide”) at FLAG-tagged SOCS3 is “binds specifically to the phosphorylated Y1077 peptide, but apparently with a much lower affinity”.
With “biotin-QRQPSVK(p)Y985ATLVSNDK (SEQ ID NO:7) [non-phosphorylated peptide]”, the “binding of SOCS3 to peptide” value on FLAG-tagged SOCS3 is “did not bind any SOCS3 protein”.
Take “biotin-QRQPSVK(p)Y985ATLVSNDK (SEQ ID NO:7) [phosphorylated Y985 peptide]”: the “binding of SOCS3 to peptide” value on FLAG-tagged SOCS3 is “clear and specific binding”.

B1: FLAG-tagged rat SOCS3 (expressed from pMET7fSOCS3), O88583 1-225 (protein)
chain: MDYKDDDDKMVTHSKFPAAGMSRPLDTSLRLKTFSSKSEYQLVVNAVRKLQESGFYWSAVTGGEANLLLSAEPAGTFLIRDSSDQRHFFTLSVETQSGTKNLRIQCEGGSFSLQSDPRSTQPVPRFDCVLKLVHHYMPPPGAPSFSLPPTEPSFEVQEQPPAQALPGGTPKRAYYIYSGGEKIPLVLSRPLSSNVATLQHLCRKTVNGHLDSYEKVTQLPGPIREFLDQYDAPL
Regarding B1, the “inhibition of leptin-mediated reporter induction” value in the assay with leptin receptor [1] is listed as “marked inhibition”. Besides, the figures for the inhibition of leptin-induced rPAP1 luciferase reporter in assay [2], in assay [3] and in assay [4] were 80 to 90 % inhibition, 30 to 50 % inhibition and 80 to 90 % inhibition, respectively. Moreover, the “inhibition of leptin signalling (rPAP1 luciferase)” value in the assay with leptin receptor [5] (Y985F receptor variant) was 30-50 % inhibition; with leptin receptor [5] (double Y985/1077F mutant), “no inhibition was observed”; in the assay on leptin receptor [5] (mutant Y1077F leptin receptor) it was 80-90 % inhibition; with leptin receptor [5] (wild-type leptin receptor), 80-90 % inhibition.
